Consider 2 molecules from US20190345206A1 (MOMENTA PHARMACEUTICALS, published 2019).

Experiment [1] has as its target T1, FcγRI (UniProt P12314 16-374, limits assumed).
T1 construct: whole, on cells; also called CD64
The experiment is described as follows: cell-based TR-FRET competition assay (CISBIO kit), FcγRI cells. How it is done: (§1) A cell-based binding assay was utilized to confirm that the amino acid modifications at positions I253, e.g., I253A, and R292, e.g., R292P, were specific to the intended receptors, e.g., reduced binding affinity to the FcRn receptor and FcγRIIb receptor, respectively. Relative binding of Fc constructs and controls to Fc gamma receptors (FcγRs) was measured using cell-based homogeneous time-resolved fluorescence resonance energy transfer (TR-FRET) competition assays (CISBIO®) kits for FcγRI, FcγRIIa H131, FcγRIIb, and FcγRIIIa V158. Assay reagents were prepared according to the manufacturer's instructions. A 10-point, 3-fold serial dilution series, plus one blank per sample, was generated using an automated liquid handler (Freedom EVOware 150, TECAN®). Assay plates were read on a PHERAstar fluorescent reader (BMG Labtech GmbH) at 665 and 620 nm. An IgG1 sample was used as a control.

Experiment [2] deals with T2, FcγRIIIa V158 (UniProt P08637 17-254, limits assumed).
T2 construct: whole, on cells; V158 is the allotype as printed (mature numbering); also called CD16a
The experiment is described as follows: cell-based TR-FRET competition assay (CISBIO kit), FcγRIIIa V158 cells. How it is done: as §1
(In general: In TR-FRET formats the signal depends on donor and acceptor labels being close together.)

The target of experiment [3] is T3, Recombinant human FcRn (human, UniProt P55899 24-297; P61769 21-119, limits assumed).
T3 construct: also called neonatal Fc receptor
The experiment is described as follows: SPR at pH 6.0; human FcRn in solution over Fc construct captured by goat anti-human IgG. The text has this:
To assess the impact of the amino acid modifications at position I253, e.g., I253A, and R292, e.g., R292P, on FcRn binding a surface plasmon resonance (SPR) binding experiment was designed to measure the affinity and normalized binding level of solution-phase human FcRn to sensor-bound Fc constructs at pH 6.0. A goat anti-human IgG was immobilized on reference and test sensor surfaces using amine coupling chemistry. Fc constructs were captured on the test sensor surface. Recombinant human FcRn was flowed over the sensor surface in a dilution series with a top concentration of 1.0 μM. The sensor surface was regenerated at the end of each cycle with 10 mM glycine pH 1.7. Double-reference subtracted sensorgrams were subjected to equilibrium binding analysis; the maximum binding level (RMax) and the equilibrium dissociation constant (KD) were estimated. The normalized maximum binding level was calculated by dividing the RMax by the FC-construct capture level. Construct 16 was captured at the same level as construct 4, […] (FIG. 20).

Residue numbers refer to the chain shown, from its start. Names may count otherwise.

T3 sequence (P55899 24-297 limits assumed, chain 1 of 2): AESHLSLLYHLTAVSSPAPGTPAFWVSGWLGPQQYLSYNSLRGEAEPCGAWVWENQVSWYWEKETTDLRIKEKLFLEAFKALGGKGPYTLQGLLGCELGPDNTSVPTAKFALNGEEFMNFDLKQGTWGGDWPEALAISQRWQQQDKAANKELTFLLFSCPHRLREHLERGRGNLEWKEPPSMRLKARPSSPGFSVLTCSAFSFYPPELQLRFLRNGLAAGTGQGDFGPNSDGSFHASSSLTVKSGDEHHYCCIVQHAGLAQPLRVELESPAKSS
T3 sequence (P61769 21-119 limits assumed, chain 2 of 2): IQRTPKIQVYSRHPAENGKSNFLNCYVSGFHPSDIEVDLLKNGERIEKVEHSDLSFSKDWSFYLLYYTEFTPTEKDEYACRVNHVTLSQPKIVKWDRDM
T1 sequence (P12314 16-374 limits assumed): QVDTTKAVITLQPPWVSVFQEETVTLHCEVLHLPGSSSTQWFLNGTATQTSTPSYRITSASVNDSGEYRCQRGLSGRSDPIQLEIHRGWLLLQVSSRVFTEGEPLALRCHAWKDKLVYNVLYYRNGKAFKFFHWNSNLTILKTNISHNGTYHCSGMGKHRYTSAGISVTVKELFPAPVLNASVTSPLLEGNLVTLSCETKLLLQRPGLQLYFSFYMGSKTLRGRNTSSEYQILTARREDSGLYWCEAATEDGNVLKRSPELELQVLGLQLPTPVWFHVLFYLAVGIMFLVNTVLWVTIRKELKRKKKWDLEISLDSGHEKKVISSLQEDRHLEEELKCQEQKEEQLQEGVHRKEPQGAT
T2 sequence (P08637 17-254 F176V limits assumed): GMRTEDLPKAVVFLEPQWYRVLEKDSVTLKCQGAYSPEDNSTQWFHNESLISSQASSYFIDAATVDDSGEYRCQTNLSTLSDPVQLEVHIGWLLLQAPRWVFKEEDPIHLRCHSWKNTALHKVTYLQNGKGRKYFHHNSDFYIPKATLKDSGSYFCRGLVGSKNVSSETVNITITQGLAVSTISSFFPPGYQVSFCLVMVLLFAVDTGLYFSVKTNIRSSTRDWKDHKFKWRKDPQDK

B1: Fc construct 18 (other)
chain 1: DKTHTCPPCPAPELLGGPSVFLFPPKPKDTLMASRTPEVTCVVVDVSHEDPEVKFNWYVDGVEVHNAKTKPPEEQYNSTYRVVSVLTVLHQDWLNGKEYKCKVSNKALPAPIEKTISKAKGQPREPQVYTLPPCRDKLTKNQVSLWCLVKGFYPSDIAVEWESNGQPENNYKTTPPVLDSDGSFFLYSKLTVDKSRWQQGNVFSCSVMHEALHNHYTQKSLSLSPGKGGGGGGGGGGGGGGGGGGGGDKTHTCPPCPAPELLGGPSVFLFPPKPKDTLMISRTPEVTCVVVDVSHEDPEVKFNWYVDGVEVHNAKTKPPEEQYNSTYRVVSVLTVLHQDWLNGKEYKCKVSNKALPAPIEKTISKAKGQPREPQVYTLPPSRDELTKNQVSLTCLVKGFYPSDIAVEWESNGQPENNYKTTPPVLKSDGSFFLYSDLTVDKSRWQQGNVFSCSVMHEALHNHYTQKSLSLSPG
chain 2: DKTHTCPPCPAPELLGGPSVFLFPPKPKDTLMASRTPEVTCVVVDVSHEDPEVKFNWYVDGVEVHNAKTKPPEEQYNSTYRVVSVLTVLHQDWLNGKEYKCKVSNKALPAPIEKTISKAKGQPREPQVCTLPPSRDELTKNQVSLSCAVDGFYPSDIAVEWESNGQPENNYKTTPPVLDSDGSFFLVSKLTVDKSRWQQGNVFSCSVMHEALHNHYTQKSLSLSPG
notes: Construct 4 with R292P in all three Fc domains and I253A in the two N-terminal Fc domains; also called Q1
Consider B1, for which the binding result in experiment [1] and in experiment [2] was “binds” throughout.

B2: Fc construct 19 (other)
chain 1: B1 chain 1 with I280A
chain 2: B1 chain 2
notes: Construct 4 with R292P and I253A in all three Fc domains; also called Q2
On to B2, for which the binding result in experiment [3] is recorded as “no binding (tested: top concentration of 1.0 µM)”.
